The source of these data is patent US20040141978A1 (PHARMACIA AND UPJOHN, published 2004).

One test addresses p53 + Binding Domain. The test is described as follows: cell-based or functional assay.
Test [1] has as its target Angiostatin + Binding Domain (UniProt P00747). The test is described as follows: cell-based or functional assay.
In the next test the target is T1, ABP-1 (human, UniProt Q4VCS5 410-1084).
T1 construct: also called angiostatin receptor
T1 sequence: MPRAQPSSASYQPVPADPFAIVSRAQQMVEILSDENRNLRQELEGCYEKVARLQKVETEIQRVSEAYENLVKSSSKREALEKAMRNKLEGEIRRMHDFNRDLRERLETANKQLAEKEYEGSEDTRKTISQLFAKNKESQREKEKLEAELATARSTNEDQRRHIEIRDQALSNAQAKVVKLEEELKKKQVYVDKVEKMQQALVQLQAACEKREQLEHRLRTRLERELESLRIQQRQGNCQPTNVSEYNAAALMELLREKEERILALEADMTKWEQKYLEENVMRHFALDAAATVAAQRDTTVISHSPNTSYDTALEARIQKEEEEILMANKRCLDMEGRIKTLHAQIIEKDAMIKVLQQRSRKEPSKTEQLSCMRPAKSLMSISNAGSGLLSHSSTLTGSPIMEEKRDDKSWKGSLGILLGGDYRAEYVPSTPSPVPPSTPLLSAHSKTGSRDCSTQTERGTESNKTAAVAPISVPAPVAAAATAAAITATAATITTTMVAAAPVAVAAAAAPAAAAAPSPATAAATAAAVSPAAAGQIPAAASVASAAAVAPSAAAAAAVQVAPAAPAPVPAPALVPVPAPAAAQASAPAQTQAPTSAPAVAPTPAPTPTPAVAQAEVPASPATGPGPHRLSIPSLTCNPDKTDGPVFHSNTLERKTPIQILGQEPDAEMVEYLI
The test is described as follows: fluorescence microscopy, FITC-labelled angiostatin (10 ug/ml) on live HeLa cells transfected with ABP-1.

Chain of Angiostatin + Binding Domain (P00747 whole entry, the tested form may be a part): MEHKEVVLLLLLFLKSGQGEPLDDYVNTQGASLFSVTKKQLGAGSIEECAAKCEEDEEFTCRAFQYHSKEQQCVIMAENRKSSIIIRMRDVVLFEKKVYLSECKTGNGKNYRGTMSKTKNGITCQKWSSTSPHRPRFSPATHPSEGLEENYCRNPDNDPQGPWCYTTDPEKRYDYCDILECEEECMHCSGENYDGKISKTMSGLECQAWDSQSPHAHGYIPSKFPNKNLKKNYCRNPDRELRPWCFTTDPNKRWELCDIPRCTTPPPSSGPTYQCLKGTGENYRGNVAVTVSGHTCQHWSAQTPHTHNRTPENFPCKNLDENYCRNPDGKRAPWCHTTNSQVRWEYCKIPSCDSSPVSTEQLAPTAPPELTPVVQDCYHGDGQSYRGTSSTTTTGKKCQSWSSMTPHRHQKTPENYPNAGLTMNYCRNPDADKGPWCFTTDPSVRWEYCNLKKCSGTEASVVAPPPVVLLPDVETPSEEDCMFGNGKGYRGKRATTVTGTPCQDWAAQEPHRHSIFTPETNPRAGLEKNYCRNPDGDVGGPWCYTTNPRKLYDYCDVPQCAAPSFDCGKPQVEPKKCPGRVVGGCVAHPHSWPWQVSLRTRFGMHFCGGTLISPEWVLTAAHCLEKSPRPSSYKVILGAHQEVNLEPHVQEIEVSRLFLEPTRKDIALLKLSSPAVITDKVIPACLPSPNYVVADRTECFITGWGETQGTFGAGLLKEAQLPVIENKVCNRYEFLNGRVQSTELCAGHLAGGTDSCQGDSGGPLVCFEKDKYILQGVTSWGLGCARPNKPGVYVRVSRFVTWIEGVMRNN

With “SV40LT - Activation Domain (from UniProt P03070 84-708)”, the β-Gal Activity with p53 + Binding Domain came to 90 u.
On to “Activation Domain alone (from UniProt P04386 768-881)”, for which, in test [1], the β-Gal Activity is less than 0.04 u.

B1: human angiostatin (kringle domains 1-4 of plasminogen) (ligand, UniProt P00747 99-459, looked up)
chain: YLSECKTGNGKNYRGTMSKTKNGITCQKWSSTSPHRPRFSPATHPSEGLEENYCRNPDNDPQGPWCYTTDPEKRYDYCDILECEEECMHCSGENYDGKISKTMSGLECQAWDSQSPHAHGYIPSKFPNKNLKKNYCRNPDRELRPWCFTTDPNKRWELCDIPRCTTPPPSSGPTYQCLKGTGENYRGNVAVTVSGHTCQHWSAQTPHTHNRTPENFPCKNLDENYCRNPDGKRAPWCHTTNSQVRWEYCKIPSCDSSPVSTEQLAPTAPPELTPVVQDCYHGDGQSYRGTSSTTTTGKKCQSWSSMTPHRHQKTPENYPNAGLTMNYCRNPDADKGPWCFTTDPSVRWEYCNLKKCSGTEA
modifications: FITC-labelled in the cell binding assay of FIG. 9C
notes: domain: kringle domains 1-4; Used unlabelled in the pull-down and kinase assays, FITC-labelled on transfected HeLa cells; also called K1-K4; FITC-labelled angiostatin
With B1, the binding result with ABP-1 was “binds”.
